Tests used:
[1] = target: T1, CD5L (CD5 antigen-like) (Homo sapiens, UniProt O43866 O43866:20-347); experiment: MST; 50 mM Tris-HCl pH 7.8, 150 mM NaCl, 10 mM MgCl2, 0.05% Tween-20; 2 nM Cy5-S76.T; conditions: tags: His-tagged, Sino Biological 10791-H08H; fluorescently labeled for MST except with Cy5-S76.T; label: Cy5 (MST); hairpin
T1 sequence: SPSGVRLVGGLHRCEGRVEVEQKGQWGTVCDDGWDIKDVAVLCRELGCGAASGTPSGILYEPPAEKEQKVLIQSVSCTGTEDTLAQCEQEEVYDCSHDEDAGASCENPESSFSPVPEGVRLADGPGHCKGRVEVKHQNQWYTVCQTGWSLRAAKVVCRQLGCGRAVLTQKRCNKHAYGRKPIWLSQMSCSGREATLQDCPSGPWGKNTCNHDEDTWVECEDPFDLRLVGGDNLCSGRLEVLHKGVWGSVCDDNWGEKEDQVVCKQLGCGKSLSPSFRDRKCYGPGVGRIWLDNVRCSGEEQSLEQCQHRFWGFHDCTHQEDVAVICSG
Procedure: For Cy5 labeled S76.T, a serial dilution of CD5L was prepared in the buffer composed by 50 mM Tris-HCl pH7.8, 150 mM NaCl, 10 mM MgCl2, 0.05 Tween-20. The highest concentration of CD5L was 2000 nM and the lowest 0.06 nM. 4 μl of each dilution step were mixed with 4 μl of the Cy5 labeled S76 truncated (4 nM stock). The final reaction mixture, which was filled in standard capillaries, contained a respective amount of CD5L (max. conc. 1000 nM, min conc. 0.03 nM) and constant 2 nM labeled S76 truncated MST measurement was obtained using Monolith NT.115 (NanoTemper Technologies GmbH, Munich, Germany) with standard capillaries. KD was determined as described by (Stoltenburg et al., 2015).

[2] = target: T1, CD5L (CD5 antigen-like); experiment: MST; pH 7.4, 1 mM MgCl2, 0.1% Tween20; conditions: tags: His-tagged, Sino Biological 10791-H08H; fluorescently labeled for MST except with Cy5-S76.T; predicted hairpin
Procedure: (§1) Regarding the three sequences of the second selection, S11 and S23 sequences were incubated with constant concentration (1 nM) of labeled CD5L purified recombinant protein (Sino Biological Inc., Beijing, China) or labeled VEGF scrambled protein used as negative control (R&D System). S11 and S23 were diluted 1:1 (from 15000 to 0.05 nM) in binding buffer (pH 7.4, 1 mM MgCl2, 0.1% Tween20). S76 sequence was diluted 1:1 in Tris-buffered saline (TBS) from 1000 nM to 0.03 nM. S76.T was labeled with Cy5 and the concentration was kept constant at 2 nM. CD5L was diluted from 2000 nM to 0.06 nM in 50 mM Tris-HCl pH 7.8, 150 mM NaCl, 0.05% Tween20. 5 μl of each dilution step were mixed with 5 μl of the labeled CD5L or VEGF. The final reaction mixture contained a respective amount of aptamer sequences and constant 1 nM labeled CD5L or VEGF.

[3] = target: T1, CD5L (CD5 antigen-like); experiment: MST; PBS pH 7.4, 1 mM MgCl2, 0.05% Tween20; conditions: tags: His-tagged, Sino Biological 10791-H08H; fluorescently labeled for MST except with Cy5-S76.T; three predicted hairpins followed by single-strand ends
Procedure: A serial dilution of S5, S47, S63 and S72 was prepared in specific buffer composed by PBS pH 7.4, 1 mM of MgCl2 and 0.05% Tween20. The highest concentration used was 18000 nM and the lowest 0.54 nM. 4 μl of each dilution step were mixed with 4 μl of the labeled molecule CD5L purified recombinant protein (Sino Biological Inc., Beijing, China) or VEGF scrambled protein used as negative control (R&D System) (constant concentration of 12.5 nM).

[4] = target: T1, CD5L (CD5 antigen-like); experiment: MST; TBS; 1 nM labeled CD5L; conditions: tags: His-tagged, Sino Biological 10791-H08H; fluorescently labeled for MST except with Cy5-S76.T; predicted hairpin
Procedure: as §1

B1: S76.T (ssRNA)
RNA: AGGUUGCAGCGUUCGACAGGAGGCUCACAACAG
modifications: 2'-F pyrimidines
Kd [1]: 10.1 nM

B2: S11 (ssRNA)
RNA: AGACAAGAAUAAACGCUCAAUUAUCGGAGAGGCCGAACAGAUACUUCGUUAGACACCUUGCAGCGUUCGACAGGAGGC
modifications: 2'-F pyrimidines
Kd [2]: 59.2 nM

B3: S5 (ssRNA)
RNA: AGACAAGAAUAAACGCUCAAGCGAAGGUGUGACCACAAACCACAUAAAGGCAAGGUCGCGCCGCGUUCGACAGGAGGCUCACAACAGGC
modifications: 2'-F pyrimidines
Kd [3]: 556 nM

B4: S76 (ssRNA)
RNA: AGACAAGAAUAAACGCUCAAUUAUCGGAGAGGCCGAACAGAUACUUCGUUAGACAGGUUGCAGCGUUCGACAGGAGGCUCACAACAGGC
modifications: 2'-F pyrimidines
Kd [4]: 2.2 nM

B5: S23 (ssRNA)
RNA: AGACAAGAAUAAACGCUCAAAAAGAGAGAAGGAUAAGAACCAUCAAAAAGAGAGAGCAGAGCCAGAUUCGACAGGAGGCUCACAACAGGC
modifications: 2'-F pyrimidines
Kd [2]: 92.1 nM

Source: US20230167453, “RNA APTAMERS AND USE THEREOF FOR TREATING CANCER” (Board of Regents, The University of Texas System, published 2023)
